From patent US20170058005A1 (priority 2014, published 2017)
“Also recorded” adds a separate entry of the source.

How the values were obtained:
DRB1*0301 (DR3) = DRB1*0301 (DR3) (Homo sapiens, UniProt P01903+P01911, A100K/A102G/A103R/A169T/F55Y/I96L/K41T/L162R/M171V/P40S/Q125H/Q178H/Q39Y/R42S/S66N/T106N/T262R/W38E/Y61H); assay type: binding
DRB1*1501 (DR15) = DRB1*1501 (DR15) (Homo sapiens, UniProt P01903+P01911); assay type: binding
DRB1*0701 (DR7) = DRB1*0701 (DR7) (Homo sapiens, UniProt P01903+P01911, A100R/A102G/A103Q/D57E/D86V/E43K/F76Y/K127E/L162R/M171V/P40G/Q125H/Q99D/R33Q/R42Y/R54Q/S133A/S66F/T210M/V115G/Y107V/Y59L/Y89S); assay type: binding
DRB1*1101 (DR11) = DRB1*1101 (DR11) (Homo sapiens, UniProt P01903+P01911, A100R/A169T/A87E/I96F/K41T/L162R/M171V/P40S/Q125H/Q178H/Q39Y/Q99D/R42S/S66Y/T262R/V115G/W38E); assay type: binding
DRB1*0101 (DR1) = DRB1*0101 (DR1) (Homo sapiens, UniProt P01903+P01911, A100R/D57E/F55L/F60I/F76Y/I96L/L162R/M171V/P40L/Q125E/R42F/V115G/Y59C); assay type: binding
DRB1*0401 (DR4) = DRB1*0401 (DR4) (Homo sapiens, UniProt P01903+P01911, A100K/A169T/F76Y/I96L/K127E/L162R/M171V/N62H/P40V/Q125Y/R42H/S133A/S149N/S66Y/V115G/V209L/W38E); assay type: binding
HLA-DR molecules = assay type: binding, human
DRB1*1301 (DR13) = DRB1*1301 (DR13) (Homo sapiens, UniProt P01903+P01911, A100E/A169T/K41T/L162R/M171V/P40S/Q125H/Q178H/Q39Y/Q99D/R42S/S66N/T262R/W38E/Y61H); assay type: binding
[1] = test system: CD4^+ T cells of HLA class II transgenic mice; assay type: cell-based

| Sequence | Relative binding affinity of peptide to HLA-DR molecules, DR3 (DRB1*0301 (DR3)) | Strong relative binding affinity of peptide to HLA-DR molecules, DR3 (DRB1*0301 (DR3)) | Relative binding affinity of peptide to HLA-DR molecules, DR15 (DRB1*1501 (DR15)) | Strong relative binding affinity of peptide to HLA-DR molecules, DR15 (DRB1*1501 (DR15)) | Relative binding affinity of peptide to HLA-DR molecules, DR7 (DRB1*0701 (DR7)) | Strong relative binding affinity of peptide to HLA-DR molecules, DR7 (DRB1*0701 (DR7)) | Relative binding affinity of peptide to HLA-DR molecules, DR11 (DRB1*1101 (DR11)) | Strong relative binding affinity of peptide to HLA-DR molecules, DR11 (DRB1*1101 (DR11)) | Relative binding affinity of peptide to HLA-DR molecules, DR1 (DRB1*0101 (DR1)) | Strong relative binding affinity of peptide to HLA-DR molecules, DR1 (DRB1*0101 (DR1)) | Relative binding affinity of peptide to HLA-DR molecules, DR4 (DRB1*0401 (DR4)) | Strong relative binding affinity of peptide to HLA-DR molecules, DR4 (DRB1*0401 (DR4)) | Binding to HLA-DR1, DR4 and DR15 (HLA-DR molecules) | Relative binding affinity of peptide to HLA-DR molecules, DR13 (DRB1*1301 (DR13)) | Strong relative binding affinity of peptide to HLA-DR molecules, DR13 (DRB1*1301 (DR13)) | CD4 T cell response in LF immunized HLA transgenics [1] | HLA-restriction based on CD4 T cell response class II HLA transgenics after priming with LF [1] | Binding across all HLA-DR alleles assayed (HLA-DR molecules) |
| --- | --- | --- | --- | --- | --- | --- | --- | --- | --- | --- | --- | --- | --- | --- | --- | --- | --- | --- |
| LENGKLILQRNIGLEIKDVQI | 4 | + (key: +: Strong binding affinity was defined in this study as a relative activity <10) | 0.04 | + (key: +: Strong binding affinity was defined in this study as a relative activity <10) | 1 | + (key: +: Strong binding affinity was defined in this study as a relative activity <10) | 3 | + (key: +: Strong binding affinity was defined in this study as a relative activity <10) | 0 | + (key: +: Strong binding affinity was defined in this study as a relative activity <10) | 7 | + (key: +: Strong binding affinity was defined in this study as a relative activity <10) | strong binders to all three HLA-DR alleles | 9 | + (key: +: Strong binding affinity was defined in this study as a relative activity <10) | identified in HLA-DR1, HLA-DR4 and HLA-DR15 transgenic lines; also recorded: immunogenic in all three HLA-DR transgenic strains | DR1, DR4, DR15 |  |
| QNSNEVQEVFAKAFAYYIEP | 173 |  | 1 |  | 0.4 |  | 2 |  | 0.1 |  | 137 |  |  | 327 |  |  | DR1 | strong to moderate binding across all seven HLA-DR alleles |
| EYIRIDAKVVPKSKIDTKIQ | 1 |  | 156 |  | 12 |  | 21 |  | 3 |  | 15 |  |  | 24 |  | elicited a T cell response in a single HLA transgenic strain | DRI | strong to moderate binding across all seven HLA-DR alleles |
| SDVLEMYKAIGGKIYIVDGD | >76 |  | 2 |  | 1 |  | 4 |  | 5 |  | 305 |  |  | 123 |  | HLA-DQ8 specific response | DQ8 | strong to moderate binding across all seven HLA-DR alleles |
| QHRDVLQLYAPEAFNYMDKF | 3 |  | 0.3 |  | 83 |  | 5 |  | 146 |  | 100 |  |  | 267 |  |  | DR1, DQ8 | strong to moderate binding across all seven HLA-DR alleles |
| HQSIGSTLYNKIYLYENMNI | 1 | + (key: +: Strong binding affinity was defined in this study as a relative activity <10) | 0.02 | + (key: +: Strong binding affinity was defined in this study as a relative activity <10) | 3 | + (key: +: Strong binding affinity was defined in this study as a relative activity <10) | 44 |  | 115 |  | 55 |  |  | 5 | + (key: +: Strong binding affinity was defined in this study as a relative activity <10) | recognised by all LF immunized HLA transgenics; also recorded: immunogenic in all three HLA-DR transgenic strains | DR1, DR4, DR15,; also recorded: DQ8, DQ6 | strong to moderate binding across all seven HLA-DR alleles |
